Source: paper PMC8103725 (FASEB BioAdvances, 2021)

B1: biotinylated HEG1 cytoplasmic tail (a.a. 1274–1381) (domain or fragment, UniProt Q9ULI3 1274-1381, looked up)
chain: RKNKNDISKLIFKSGDFQMSPYAEYPKNPRSQEWGREAIEMHENGSTKNLLQMTDVYYSPTSVRNPELERNGLYPAYTGLPGSRHSCIFPGQYNPSFISDESRRRDYF
modifications: biotin on the in vivo biotinylation peptide tag
B2: His6-EGFP-KRIT1 (WT) FERM domain (417–736) (domain or fragment, human, UniProt O00522 417-736, looked up)
chain: KPYEKVRIYRMDGSYRSVELKHGNNTTVQQIMEGMRLSQETQQYFTIWICSENLSLQLKPYHKPLQHVRDWPEILAELTNLDPQRETPQLFLRRDVRLPLEVEKQIEDPLAILILFDEARYNLLKGFYTAPDAKLITLASLLLQIVYGNYESKKHKQGFLNEENLKSIVPVTKLKSKAPHWTNRILHEYKNLSTSEGVSKEMHHLQRMFLQNCWEIPTYGAAFFTGQIFTKASPSNHKVIPVYVGVNIKGLHLLNMETKALLISLKYGCFMWQLGDTDTCFQIHSMENKMSFIVHTKQAGLVVKLLMKLNGQLMPTERNS

How the values were obtained:
[1] = molecular target: B2; test: flow cytometry on beads
[2] = molecular target: B1; test: flow cytometry on beads

Row | Binder | binding result [1] | EC50 [2] [nM]
1 | B1 | binds | 
2 | B2 |  | 32.4
